# Source: patent US20190161756, “Anti-Immunoglobulin G Aptamers and Uses Thereof” (Laboratoire Francais du Fractionnement et des …, published 2019)
# B1: A6-3 (ssDNA)
# DNA: GGGTCAATGCCAGGTCTCGACTATTCCTCCGGCCTCTTCCCTAATCAGTGGCATCTCTATCGGCTCGCAAGCAGTC
# modifications: 5' biotin-triethylene glycol spacer
# B2: A6-8 (ssDNA)
# DNA: GGGTCAATGCCAGGTCTCCACGGTATAGTCTCGCCCAGTGCCCTTTGTTGGACTTCCTATCGGCTCGCAAGCAGTC
# modifications: 5' biotin-triethylene glycol spacer
# B3: A6-2 (ssDNA)
# DNA: GGGTCAATGCCAGGTCTCCCCAGCCTCATCTCACGGCATAGTCTCGCCACACTGGAAATCGGCTCGCAAGCAGTC
# modifications: 5' biotin-triethylene glycol spacer (SPR); 5' amino-C6 spacer and 3' idT (chromatography)
# B4: A6-4 (ssDNA)
# DNA: GGGTCAATGCCAGGTCTCAAGTTTGTGGGGCTGGGGTTCGGTCCTGGCACAAATTCGTATCGGCTCGCAAGCAGTC
# modifications: 5' biotin-triethylene glycol spacer
# Columns and labels:
# Details in all cases: chain copies: 2; label: biotin
# [1] = biological target: T1, IgG4 (plasma IgG sub-class) (Homo sapiens, UniProt P01861-1 P01861-1:1-327); test: SPR; pH 5.5; faster association, partly eluted by 2 M NaCl
# T1 sequence (P01861 other isoform, or with tags, fused parts or gaps): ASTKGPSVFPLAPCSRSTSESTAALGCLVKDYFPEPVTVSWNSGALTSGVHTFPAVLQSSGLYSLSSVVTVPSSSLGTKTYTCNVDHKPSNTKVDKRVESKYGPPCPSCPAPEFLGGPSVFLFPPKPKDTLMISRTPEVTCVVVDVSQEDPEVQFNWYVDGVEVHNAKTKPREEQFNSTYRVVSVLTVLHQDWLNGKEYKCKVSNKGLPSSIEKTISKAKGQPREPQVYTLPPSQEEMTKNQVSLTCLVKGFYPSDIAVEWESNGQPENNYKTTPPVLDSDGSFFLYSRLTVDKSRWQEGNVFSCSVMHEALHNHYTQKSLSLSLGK
# Experimental: (§1) Plasma IgG's sub-classes were injected at pH 5.5 (in duplicates), whereby a complex was formed as evidenced by the increase of the signal. […] The solid support was then regenerated by injection of a solution of NaOH at 50 mM. X-axis: time in s. Y-axis: SPR response in arbitrary scale.
# (§2) The selected aptamer was synthetized with Biotin and a triethylene glycol spacer at the 5′ end of the oligonucleotide. A 1 μM solution of the aptamer was prepared using the SELEX selection buffer. The aptamer solution was heated to 90° C. for 5 min, incubated on ice for 5 min and equilibrated to room temperature for 10 min. The preparation was injected on a streptavidin coated sensor chip SA of Biacore T200 instrument (GE Healthcare) at a flow rate of 10 μl/min for 7 min. Then, different concentrations of the target (Human polyclonal IgG, purified from human plasma with a purity of >95%) were injected to the immobilised aptamer at 30 μl/min for 1 minute. After dissociation for 1-2 min a wash step was performed by injecting a suitable wash buffer at 30 μl/min for 1 min. For elution, a suitable elution buffer was injected at 30 μl/min for 1-2 min Finally the sensor chip was regenerated by injection of 50 mM NaOH at 30 μl/min for 30 sec. During the course of the experiment the response signal was recorded in a sensorgram.
# [2] = biological target: T1, IgG4 (plasma IgG sub-class); test: SPR; pH 5.5; resistant to 2 M NaCl
# Experimental: as §1, §2
# [3] = biological target: T1, IgG4 (plasma IgG sub-class); test: SPR; pH 5.5; resistant to 2 M NaCl; remark: listed apart in the source
Binder,binding result [3],also measured
B1,–,binding result [1]: binds
B2,–,binding result [2]: binds
B3,binds,–
B4,binds,–
